Legend:
Test in all cases: cell-based or functional assay
human complement C5 [1] = target: T1, human complement C5 (human, UniProt P01031 19-1676)
human complement C5 [2] = target: T1, human complement C5; remark: listed apart in the source
human complement C5 [3] = target: T1, human complement C5; remark: listed apart in the source

T1 sequence (P01031 19-1676 limits assumed): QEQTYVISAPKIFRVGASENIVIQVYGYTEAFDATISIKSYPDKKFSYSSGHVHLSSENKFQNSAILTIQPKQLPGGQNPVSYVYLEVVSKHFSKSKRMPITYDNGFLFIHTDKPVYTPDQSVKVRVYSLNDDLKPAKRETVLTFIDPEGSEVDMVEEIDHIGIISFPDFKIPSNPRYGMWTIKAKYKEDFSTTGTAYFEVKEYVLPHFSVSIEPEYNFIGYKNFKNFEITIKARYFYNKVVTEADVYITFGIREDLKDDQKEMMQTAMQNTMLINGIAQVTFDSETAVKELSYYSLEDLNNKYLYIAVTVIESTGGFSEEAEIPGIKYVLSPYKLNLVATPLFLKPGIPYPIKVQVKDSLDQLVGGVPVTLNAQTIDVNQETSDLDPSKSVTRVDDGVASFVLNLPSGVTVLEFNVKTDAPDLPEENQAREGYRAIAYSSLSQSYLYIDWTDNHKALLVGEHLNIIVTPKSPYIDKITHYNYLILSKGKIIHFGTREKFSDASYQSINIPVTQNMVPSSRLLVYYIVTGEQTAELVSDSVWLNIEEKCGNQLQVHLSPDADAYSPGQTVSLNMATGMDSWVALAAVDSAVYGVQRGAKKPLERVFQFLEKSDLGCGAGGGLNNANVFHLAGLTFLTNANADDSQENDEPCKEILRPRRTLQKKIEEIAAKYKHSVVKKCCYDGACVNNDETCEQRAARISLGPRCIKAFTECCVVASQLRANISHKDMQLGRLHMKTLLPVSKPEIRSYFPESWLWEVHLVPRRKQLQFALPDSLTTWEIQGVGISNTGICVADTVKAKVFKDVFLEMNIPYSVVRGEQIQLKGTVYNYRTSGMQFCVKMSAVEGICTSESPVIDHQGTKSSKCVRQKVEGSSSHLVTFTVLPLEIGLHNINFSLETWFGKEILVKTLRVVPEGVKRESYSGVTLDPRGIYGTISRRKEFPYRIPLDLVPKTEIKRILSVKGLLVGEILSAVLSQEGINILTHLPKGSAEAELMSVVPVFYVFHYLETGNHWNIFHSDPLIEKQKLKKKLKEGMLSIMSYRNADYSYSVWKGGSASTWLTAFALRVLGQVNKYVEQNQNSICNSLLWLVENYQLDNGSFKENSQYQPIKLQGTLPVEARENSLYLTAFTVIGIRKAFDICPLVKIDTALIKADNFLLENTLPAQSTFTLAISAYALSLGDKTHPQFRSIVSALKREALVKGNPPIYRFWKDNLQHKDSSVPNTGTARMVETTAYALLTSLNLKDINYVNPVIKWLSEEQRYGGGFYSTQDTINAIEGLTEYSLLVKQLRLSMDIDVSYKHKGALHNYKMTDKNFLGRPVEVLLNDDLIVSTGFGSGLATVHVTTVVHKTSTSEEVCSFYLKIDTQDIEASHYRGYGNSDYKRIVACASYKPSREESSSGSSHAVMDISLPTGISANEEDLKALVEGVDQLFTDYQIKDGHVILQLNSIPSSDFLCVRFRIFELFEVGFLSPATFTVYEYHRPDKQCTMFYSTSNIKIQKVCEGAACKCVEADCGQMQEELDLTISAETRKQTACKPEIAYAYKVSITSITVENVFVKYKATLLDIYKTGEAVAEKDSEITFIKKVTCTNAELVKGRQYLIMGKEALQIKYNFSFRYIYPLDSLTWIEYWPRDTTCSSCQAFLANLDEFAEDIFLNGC

| Binder | % Max Inh. of Lysis (alternative pathway hemolysis, 25% NHS, 30 min) (human complement C5 [1]) | % Max Inh. of Lysis (alternative pathway hemolysis of rabbit RBC, 25% NHS, 30 min) (human complement C5 [2]) | mAb/C5 ratio that blocked hemolysis to close to zero (25% C5-deficient NHS, 145 nM C5 add-back) (human complement C5 [3]) |
| --- | --- | --- | --- |
| H4H12176P2 (antibody, V domains shown) VH: EVQLVESGGGLVQPGGSLRLSCAASGFHSNRYWMDWVRQAPGKGLEWVANIKQDGSEENYVDSVKGRFTISRDNAKNSLYLQMNSLRAEDTAVYYCARDRSTSWVPYWFFDLWGRGTLVTVSS VL: not shown | 27.4% | 62.8% | – |
| H4H12176P2xH4H12177P2 bispecific antibody (bispecific antibody, V domains shown) VH 1: EVQLVESGGGLVQPGGSLRLSCAASGFHSNRYWMDWVRQAPGKGLEWVANIKQDGSEENYVDSVKGRFTISRDNAKNSLYLQMNSLRAEDTAVYYCARDRSTSWVPYWFFDLWGRGTLVTVSS VH 2: EVQLVESGGGVVQRGESLRLSCSASDFIFKDYAMYWVRQIPGKGLEWISLISGDGDTTWYGDSVKGRFTISRDNNENSLFLQMNDLRTEDTAMYYCARDMGWNFFQLQYWGQGTLVTVSS VL: not shown | 98.1% | – | ~1.29 mAb/C5 molar ratio |
| H4H12170P (antibody, IgG4, V domains shown) VH: QVQLVESGGGVVQPGRSLRLSCAASGFTFSGYGMHWVRQAPGKGLEWVALIWLDGSNDYYADSVKGRFTISRDNSKNTLYLQMNRLRAEDTAVYYCARDGPVAAIPDYWGQGTLVTVSS VL: DIQMTQSPSTLSASVGDRVTITCRASQSISRWLAWYQLKPGKAPKLLIYKASSLESGVPSRFSGSGSGTDFTLTISSLQPDDFATYYCQQYNTYSYTFGQGTKLEIK | – | 88.7% | – |
| H4H12171P (antibody, V domains shown) VH: EVQLVESGGGVVRPGGSLRLSCAASGFTFDEYGMTWVRQVPGKGLEWVSGITWNGGFTDYTDSVKGRFTSSRDNAKNSLYLQMNSLRAEDTALYYCARDGYSSSWGAYDIWGQGTMVTVSS VL: DIQMTQSPSSLSASVGDRVTITCRASQSISTYLNWYQQKPGKAPKLLIYAASSLQSGVPLRFSGSGSGTDFTLTISSLQPEDFASYFCQQSYSTPYTFGQGTKLEIK | – | 36.6% | – |
| H4H12175P (antibody, V domains shown) VH: EVQLVESGGGVVQPGGSLRLSCAASGFTFNDYAMHWVRQAPGKGLEWVSLISGDGGNTYYADSVKGRLTISRDNSKNSLYLQMNSLRTEDTALYYCAKDKGWNFGYFDLWGRGTLVTVSS VL: DIQMTQSPSSLSTSVGDRVTITCRASQNIDTYLNWYQQKPGKAPKLLIYDASSLQSGVPSRFSGSGSGTDFTLTITSLQPEDFATYYCQQNDNILHPLTFGGGTKVEIK | – | 77.8% | – |
| H4H12161P (antibody, V domains shown) VH: EVQLVESGGDLVQPGGSLRLSCAASGFTFSDHYMDWVRQAPGKGLDWIGRIRNKANAYNTEYAASVRGRFTISRDDSQNLLYLQMNSLKTDDTAVYYCVRVWNYAYFAMDVWGQGTTVTVSS VL: DIQMTQSPSSLSASVGDRVTITCRSSQNIGIFLNWYQQKPGEAPNLLISAASSLHSGVPSRFSGSGSGTDFTLTIGSLQPEDFATYYCQQTYNTIFTFGPGTKVDIK | – | 59.2% | – |
| H4H12177P2 (antibody, V domains shown) VH: EVQLVESGGGVVQRGESLRLSCSASDFIFKDYAMYWVRQIPGKGLEWISLISGDGDTTWYGDSVKGRFTISRDNNENSLFLQMNDLRTEDTAMYYCARDMGWNFFQLQYWGQGTLVTVSS VL: not shown | 42.6% | 76.2% | – |

From patent US20240392039A1 (Regeneron, published 2024)
